Measurements reported in patent US20220249597A1 (Johns Hopkins, published 2022).

B1: AIFm567-592 (full length AIF with aa567-592 mutated into polyalanines) (other, mouse, UniProt Q9Z0X1 1-612, looked up)
chain: MFRCGGLAGAFKQKLVPLVRTVYVQRPKQRNRLPGNLFQQWRVPLELQMARQMASSGSSGGKMDNSVLVLIVGLSTIGAGAYAYKTIKEDQKRYNERVMGLGLSPEEKQRRAIASATEGGSVPQIRAPSHVPFLLIGGGTAAFAAARSIRARDPGARVLIVSEDPELPYMRPPLSKELWFSDDPNVTKTLQFRQWNGKERSIYFQPPSFYVSAQDLPNIENGGVAVLTGKKVVHLDVRGNMVKLNDGSQITFEKCLIATGGTPRSLSAIDRAGAEVKSRTTLFRKIGDFRALEKISREVKSITVIGGGFLGSELACALGRKSQASGIEVIQLFPEKGNMGKILPQYLSNWTMEKVKREGVKVMPNAIVQSVGVSGGRLLIKLKDGRKVETDHIVTAVGLEPNVELAKTGGLEIDSDFGGFRVNAELQARSNIWVAGDAACFYDIKLGRRRVEHHDHAVVSGRLAGENMTGAAKPYWHQSMFWSDLGPDVGYEAIGLVDSSLPTVGVFAKATAQDNPKSATEQSGTGIRSESETESEASEITIPPSAPAVPQVPVEGEDYGKGVIFYAAAAAAAAAAAAAAAAAAAAAAAAAADGEQHEDLNEVAKLFNIHED
B2: AIFA567-592 (full length AIF with aa567-592 deleted) (other, mouse, UniProt Q9Z0X1 1-612, looked up)
chain: MFRCGGLAGAFKQKLVPLVRTVYVQRPKQRNRLPGNLFQQWRVPLELQMARQMASSGSSGGKMDNSVLVLIVGLSTIGAGAYAYKTIKEDQKRYNERVMGLGLSPEEKQRRAIASATEGGSVPQIRAPSHVPFLLIGGGTAAFAAARSIRARDPGARVLIVSEDPELPYMRPPLSKELWFSDDPNVTKTLQFRQWNGKERSIYFQPPSFYVSAQDLPNIENGGVAVLTGKKVVHLDVRGNMVKLNDGSQITFEKCLIATGGTPRSLSAIDRAGAEVKSRTTLFRKIGDFRALEKISREVKSITVIGGGFLGSELACALGRKSQASGIEVIQLFPEKGNMGKILPQYLSNWTMEKVKREGVKVMPNAIVQSVGVSGGRLLIKLKDGRKVETDHIVTAVGLEPNVELAKTGGLEIDSDFGGFRVNAELQARSNIWVAGDAACFYDIKLGRRRVEHHDHAVVSGRLAGENMTGAAKPYWHQSMFWSDLGPDVGYEAIGLVDSSLPTVGVFAKATAQDNPKSATEQSGTGIRSESETESEASEITIPPSAPAVPQVPVEGEDYGKGVIFYDGEQHEDLNEVAKLFNIHED

Molecular target: T1, endogenous MIF (macrophage migration inhibitory factor) in HeLa cell lysates (human, UniProt P14174 2-115)
T1 construct: Endogenous protein in lysate, detected by western blot with an anti-MIF antibody; also called MMIF; PAAN
T1 sequence (P14174 2-115 limits assumed): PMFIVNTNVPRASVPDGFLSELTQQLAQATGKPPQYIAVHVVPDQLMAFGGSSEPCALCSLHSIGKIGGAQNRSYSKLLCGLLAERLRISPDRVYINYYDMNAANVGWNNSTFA
Assay: pull-down of AIF mutants, western blot with anti-MIF antibody

Row | Binder | binding result
1 | B1 | no binding
2 | B2 | no binding
